According to publication PMC10397247:
Read-outs that look alike come from different tables or passages of the source.

Columns and labels:
Assay in all cases: two-hybrid library CCmax;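 also: natural log of median RNA to DNA barcode read ratio; higher means stronger binding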
P3-AA = target: T1, P3-AA; conditions: mean of both orientations
T1 chain: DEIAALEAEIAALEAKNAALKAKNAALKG

AP5-AA = target: T2, AP5-AA; conditions: mean of both orientations
T2 chain: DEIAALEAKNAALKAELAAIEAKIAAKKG

zCON9_B = target: T3, zCON9_B; conditions: mean of both orientations
T3 chain: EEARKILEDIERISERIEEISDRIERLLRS

P5-AA-12HGe-M = target: T4, P5-AA-12HGe-M; conditions: mean of both orientations
T4 chain: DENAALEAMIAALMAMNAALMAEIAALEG

P5-AA-1HAA-A = target: T5, P5-AA-1HAA-A; conditions: mean of both orientations
T5 chain: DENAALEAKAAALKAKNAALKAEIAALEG

P8-AA = target: T6, P8-AA; conditions: mean of both orientations
T6 chain: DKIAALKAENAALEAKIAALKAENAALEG

4H2760-AA = target: T7, 4H2760-AA; conditions: mean of both orientations
T7 chain: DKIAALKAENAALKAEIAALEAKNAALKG

4H3094-AA = target: T8, 4H3094-AA; conditions: mean of both orientations
T8 chain: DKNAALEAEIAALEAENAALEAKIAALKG

4H2947-AA = target: T9, 4H2947-AA; conditions: mean of both orientations
T9 chain: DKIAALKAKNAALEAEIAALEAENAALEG

4H3493-AA = target: T10, 4H3493-AA
T10 chain: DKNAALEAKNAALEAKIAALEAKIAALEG

4H376-AA = target: T11, 4H376-AA; conditions: mean of both orientations
T11 chain: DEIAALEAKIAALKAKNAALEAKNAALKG

4H2713-AA = target: T12, 4H2713-AA; conditions: mean of both orientations
T12 chain: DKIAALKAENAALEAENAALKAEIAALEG

4H1454-AA = target: T13, 4H1454-AA; conditions: mean of both orientations
T13 chain: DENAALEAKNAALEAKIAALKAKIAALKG

4H1064-AA = target: T14, 4H1064-AA
T14 chain: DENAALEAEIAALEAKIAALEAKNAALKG

4H478-AA = target: T15, 4H478-AA; conditions: mean of both orientations
T15 chain: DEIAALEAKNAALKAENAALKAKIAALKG

4H1146-AA = target: T16, 4H1146-AA; conditions: mean of both orientations
T16 chain: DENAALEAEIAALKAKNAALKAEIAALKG

4H3029-AA = target: T17, 4H3029-AA; conditions: mean of both orientations
T17 chain: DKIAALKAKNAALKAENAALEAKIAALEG

4H1854-AA = target: T18, 4H1854-AA; conditions: mean of both orientations
T18 chain: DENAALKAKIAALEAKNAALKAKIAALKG

4H2151-AA = target: T19, 4H2151-AA; conditions: mean of both orientations
T19 chain: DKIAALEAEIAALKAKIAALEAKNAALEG

4H1867-AA = target: T20, 4H1867-AA; conditions: mean of both orientations
T20 chain: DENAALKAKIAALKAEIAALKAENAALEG

P6-AA-1HGe-D = target: T21, P6-AA-1HGe-D; conditions: mean of both orientations
T21 chain: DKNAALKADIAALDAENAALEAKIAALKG

P6-AA-1HAA-Y = target: T22, P6-AA-1HAA-Y; conditions: mean of both orientations
T22 chain: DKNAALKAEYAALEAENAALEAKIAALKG

4H1552-AA = target: T23, 4H1552-AA; conditions: mean of both orientations
T23 chain: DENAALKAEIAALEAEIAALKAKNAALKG

O6-AA = target: T24, O6-AA; conditions: mean of both orientations
T24 chain: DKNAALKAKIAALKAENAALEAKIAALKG

P6-AA-12HGe-A = target: T25, P6-AA-12HGe-A; conditions: mean of both orientations
T25 chain: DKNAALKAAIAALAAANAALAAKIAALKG

4H2238-AA = target: T26, 4H2238-AA; conditions: mean of both orientations
T26 chain: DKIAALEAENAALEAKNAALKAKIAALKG

4H233-AA = target: T27, 4H233-AA; conditions: mean of both orientations
T27 chain: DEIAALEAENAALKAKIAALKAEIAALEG

4H2211-AA = target: T28, 4H2211-AA; conditions: mean of both orientations
T28 chain: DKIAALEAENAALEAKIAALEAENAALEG

4H3940-AA = target: T29, 4H3940-AA; conditions: mean of both orientations
T29 chain: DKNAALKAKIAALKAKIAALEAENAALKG

4H1350-AA = target: T30, 4H1350-AA
T30 chain: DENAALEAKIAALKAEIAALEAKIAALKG

4H3922-AA = target: T31, 4H3922-AA; conditions: mean of both orientations
T31 chain: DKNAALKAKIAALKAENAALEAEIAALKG

4H1324-AA = target: T32, 4H1324-AA; conditions: mean of both orientations
T32 chain: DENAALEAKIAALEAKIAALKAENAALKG

4H1802-AA = target: T33, 4H1802-AA; conditions: mean of both orientations
T33 chain: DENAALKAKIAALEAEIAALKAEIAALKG

4H2600-AA = target: T34, 4H2600-AA; conditions: mean of both orientations
T34 chain: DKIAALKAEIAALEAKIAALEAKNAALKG

4H2721-AA = target: T35, 4H2721-AA; conditions: mean of both orientations
T35 chain: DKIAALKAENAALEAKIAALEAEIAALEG

4H895-AA = target: T36, 4H895-AA; conditions: mean of both orientations
T36 chain: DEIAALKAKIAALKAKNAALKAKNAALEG

4H3651-AA = target: T37, 4H3651-AA; conditions: mean of both orientations
T37 chain: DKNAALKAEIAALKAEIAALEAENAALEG

4H2442-AA = target: T38, 4H2442-AA; conditions: mean of both orientations
T38 chain: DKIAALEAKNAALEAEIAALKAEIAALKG

APC4011-AA = target: T39, APC4011-AA; conditions: mean of both orientations
T39 chain: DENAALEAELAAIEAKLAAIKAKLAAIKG

P6-AA-12HAA-K = target: T40, P6-AA-12HAA-K; conditions: mean of both orientations
T40 chain: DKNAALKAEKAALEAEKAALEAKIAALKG

O7-AA = target: T41, O7-AA; conditions: mean of both orientations
T41 chain: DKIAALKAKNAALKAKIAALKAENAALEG

O1-AA = target: T42, O1-AA; conditions: mean of both orientations
T42 chain: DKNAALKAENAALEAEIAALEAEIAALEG

Question: How did the interaction score (P3-AA) turn out when DKNAALKAEIAALEAENAALEAKIAALKG [4H3606-AA] was run?
Answer: -0.421

Question: And the interaction score (AP5-AA)?
Answer: 2.26

Question: What about the interaction score (zCON9_B) of the same binder?
Answer: -0.854

Question: What about the interaction score (P5-AA-12HGe-M) of the same binder?
Answer: 1.77

Question: What about the interaction score (P5-AA-1HAA-A) of the same binder?
Answer: 2.07

Question: What about the interaction score (P8-AA) of the same binder?
Answer: -0.645

Question: What does the source list for DEIAALEAENAALKAKNAALKAEIAALEG [4H249-AA]?
Answer: interaction score (4H2760-AA): 1.68; interaction score (4H3094-AA): -0.0288; interaction score (4H2947-AA): -1.55; interaction score (4H3493-AA): -1.67; interaction score (4H376-AA): -1.45

Question: Which results are given for DENAALEAEIAALEAKIAALEAKNAALKG [4H1064-AA]?
Answer: interaction score (4H2713-AA): -1.48; interaction score (4H1454-AA): 0.729; interaction score (4H1064-AA): 0.0437; interaction score (4H478-AA): -1.56; interaction score (4H1146-AA): -0.282; interaction score (4H3029-AA): -1.16; interaction score (4H1854-AA): -1.4

Question: DENAALEAKIAALKAKNAALKAEIAALEG [4H1401-AA] was tested. Which interaction score (P3-AA) did it give?
Answer: -1.1

Question: And the interaction score (4H2151-AA)?
Answer: -1.5

Question: And the interaction score (4H1867-AA)?
Answer: -1.22

Question: And the interaction score (AP5-AA)?
Answer: -0.362

Question: What about the interaction score (P6-AA-1HGe-D) of the same binder?
Answer: 1.88

Question: What about the interaction score (P6-AA-1HAA-Y) of the same binder?
Answer: 2.37

Question: What about the interaction score (zCON9_B) of the same binder?
Answer: -0.316

Question: What about the interaction score (4H1552-AA) of the same binder?
Answer: -0.741

Question: What about the interaction score (O6-AA) of the same binder?
Answer: 1.98

Question: And the interaction score (P6-AA-12HGe-A)?
Answer: -0.0521

Question: What about the interaction score (P8-AA) of the same binder?
Answer: 0.854

Question: What does the source list for DENAALKAEIAALKAENAALKAEIAALKG [4H1626-AA]?
Answer: interaction score (4H3493-AA; mean of both orientations): -1.45; interaction score (4H376-AA): -1.87

Question: Which results are given for DENAALEAKIAALKAEIAALEAKIAALKG [4H1350-AA]?
Answer: interaction score (4H2238-AA): -1.14; interaction score (4H233-AA): 0.257; interaction score (4H2211-AA): -1.32; interaction score (4H3940-AA): -0.283; interaction score (4H1350-AA): 2.09; interaction score (4H3922-AA): -0.898

Question: What does the source list for DENAALEAENAALEAEIAALEAEIAALEG [4H1153-AA]?
Answer: interaction score (4H2151-AA): -1.21; interaction score (4H1867-AA): 0.531; interaction score (4H1324-AA): -0.874; interaction score (4H1552-AA): -0.818

Question: Which interaction score (4H1802-AA) does the source give for DENAALEAENAALKAKIAALKAEIAALEG [4H1257-AA] here?
Answer: -1.38

Question: What about the interaction score (4H1454-AA) of the same binder?
Answer: -0.555

Question: What about the interaction score (4H2600-AA) of the same binder?
Answer: 0.518

Question: And the interaction score (4H2721-AA)?
Answer: 1.02

Question: What about the interaction score (4H895-AA) of the same binder?
Answer: -1.61

Question: What about the interaction score (4H3651-AA) of the same binder?
Answer: -1.01

Question: And the interaction score (4H2442-AA)?
Answer: -1.57

Question: With DENAALKAKIAALEAKNAALEAKIAALEG [4H1845-AA] as the binder, how does the interaction score (APC4011-AA) read?
Answer: -1.65

Question: What about the interaction score (4H2442-AA) of the same binder?
Answer: -1.87

Question: For DENAALEAKIAALKAKIAALKAEIAALEG [4H1385-AA], which interaction score (P6-AA-12HAA-K) is on record?
Answer: 2.03

Question: How did the interaction score (O7-AA) turn out when DEIAALEAENAALEAKIAALKAENAALEG [4H171-AA] was run?
Answer: 1.08

Question: And the interaction score (O6-AA)?
Answer: -0.729

Question: What about the interaction score (O1-AA) of the same binder?
Answer: -1.52
